Values quoted from earlier work, collected in paper PMC6731456.

Biological target: Apelin receptor (Homo sapiens) (UniProt P35414)
Sequence of UniProt P35414 (P35414 whole entry): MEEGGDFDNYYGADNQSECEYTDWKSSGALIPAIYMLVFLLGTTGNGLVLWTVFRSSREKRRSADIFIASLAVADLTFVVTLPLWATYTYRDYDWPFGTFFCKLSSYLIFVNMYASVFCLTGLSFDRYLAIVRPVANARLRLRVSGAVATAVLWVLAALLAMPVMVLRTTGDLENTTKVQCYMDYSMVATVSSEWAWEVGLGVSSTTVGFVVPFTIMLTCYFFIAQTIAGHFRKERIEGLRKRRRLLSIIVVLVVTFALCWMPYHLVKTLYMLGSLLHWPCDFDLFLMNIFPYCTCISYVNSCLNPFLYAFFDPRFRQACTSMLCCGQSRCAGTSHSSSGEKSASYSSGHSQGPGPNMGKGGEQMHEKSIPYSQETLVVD

## Protamine (from UniProt P69014)
  Ki: 390 nM
